# Laboratory results from CN108948194A.
# T1: 食蟹猴CTLA-4.ECD-6xHis (cynomolgus monkey) (UniProt G7PL88)
# T1 sequence: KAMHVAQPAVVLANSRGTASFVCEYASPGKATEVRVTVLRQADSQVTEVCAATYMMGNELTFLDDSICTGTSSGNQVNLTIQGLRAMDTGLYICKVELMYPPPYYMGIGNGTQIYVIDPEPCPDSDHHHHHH
# Key:
# [1] = biological target: 全长人CTLA-4 on cells (293F stable line) (human) (UniProt P16410); test: FACS on 293F cells expressing human CTLA-4
# [2] = biological target: T1, 食蟹猴CTLA-4.ECD-6xHis (cynomolgus monkey); test: SPR; antibody captured, cynomolgus CTLA-4.ECD-6xHis as analyte, 1:1 fit
# [3] = biological target: 小鼠CTLA-4.ECD-6xHis (mouse) (UniProt P09793); test: ELISA; mouse CTLA-4.ECD-6xHis coated at 0.5 μg/mL
# 人CTLA-4.ECD.hFc (human) [4] = biological target: 人CTLA-4.ECD.hFc (human) (UniProt P16410); test: FACS competition; biotinylated hCTLA-4.ECD.hFc on CD86-expressing CHO cells (competitor CD86)
# 人CTLA-4.ECD.hFc (human) [5] = biological target: 人CTLA-4.ECD.hFc (human) (UniProt P16410); test: FACS competition; biotinylated hCTLA-4.ECD.hFc on CD80-expressing CHO cells (competitor CD80)
# [6] = biological target: 人CTLA-4.ECD-6xHis (human) (UniProt P16410); test: SPR (Biacore T200); antibody captured on anti-human Fc, hCTLA-4.ECD-6xHis as analyte, 1:1 fit
# [7] = biological target: T1, 食蟹猴CTLA-4.ECD-6xHis (cynomolgus monkey); test: ELISA; cynomolgus CTLA-4.ECD-6xHis coated at 0.5 μg/mL
# [8] = biological target: 全长人CTLA-4 on cells (293F stable line) (human) (UniProt P16410); test: FACS affinity (modified Benedict method) on cells expressing human CTLA-4
# [9] = biological target: 人CTLA-4.ECD-6xHis (human) (UniProt P16410); test: ELISA; human CTLA-4.ECD-6xHis coated at 1.0 μg/mL
# 人CTLA-4.ECD.hFc (human) [10] = biological target: 人CTLA-4.ECD.hFc (human) (UniProt P16410); test: competition ELISA; CTLA-4.ECD.hFc coated, competitor CD80-6xHis at 0.25 μg/mL
# 人CTLA-4.ECD.hFc (human) [11] = biological target: 人CTLA-4.ECD.hFc (human) (UniProt P16410); test: competition ELISA; CTLA-4.ECD.hFc coated, competitor CD86-6xHis at 0.25 μg/mL
# [12] = biological target: 小鼠CTLA-4.ECD-6xHis (mouse) (UniProt P09793); test: SPR; antibody captured, mouse CTLA-4.ECD-6xHis as analyte, 1:1 fit
EC50 [1],Kd [2],EC50 [3],IC50 (人CTLA-4.ECD.hFc (human) [4]),percent of CTLA-4 binding blocked at the highest concentration (人CTLA-4.ECD.hFc (human) [4]),IC50 (人CTLA-4.ECD.hFc (human) [5]),percent of CTLA-4 binding blocked at the highest concentration (人CTLA-4.ECD.hFc (human) [5]),Kd [6],EC50 [7],Kd [8],EC50 [9],IC50 (人CTLA-4.ECD.hFc (human) [10]),IC50 (人CTLA-4.ECD.hFc (human) [11]),Kd [12],Binder
1.58 nM,1.92 nM,0.19 nM,5.15 nM,73%,6.6 nM,71%,0.477 nM,0.05 nM,5.05 nM,0.03 nM,0.87 nM,0.71 nM,1.39 nM,"W3162-1.146.19-z12-IgGk (antibody, from another filing, V domains shown) VH: QVQLQESGPGLVKPSETLSLTCSVTYHTITSGYDWTWIRKPPGKGMEWIGYISYSGNTNYNPSLKSRVTISRDTSKNQFFLKLSSVTAADTAVYYCASMMVPHYYVMDAWGQGTLVTVSS VL: DIVMTQTPLSLSVTPGQPASISCRSSQSLLNSDGNTYLYWYLQKPGQSPQLLIYLVSKLGSGVPNRFSGSGSGTDFTLKISRVEAEDVGVYYCVQGTHDPWTFGGGTKVEIK"
0.66 nM,0.131 nM,–,0.28 nM,98%,0.07 nM,89%,0.0968 nM,0.05 nM,0.35 nM,0.04 nM,0.63 nM,0.5 nM,–,"W3162-1.154.8-z35-IgGk (antibody, from another filing, V domains shown) VH: QVQLVQSGAEVKKPGSSVKVSCKASGYTFTNYFMNWVRQAPGQGLEWMGRVDPEQGRADYAEKFKKRVTITADKSTSTAYMELSSLRSEDTAVYYCARRAMDNYGFAYWGQGTLVTVSS VL: EIVLTQSPDFQSVTPKEKVTITCSANSALSYMYWYQQKPDQSPKLWVHGTSNLASGVPSRFSGSGSGTDFTLTINSLEAEDAATYYCHHWSNTQWTFGGGTKVEIK"
